In patent US20190382493A1 (published 2019):
Where two headings read alike, the source gives them in different places.

Columns and labels:
[1] = target: T1, human PDL1 (R&D Systems) (human, UniProt Q9NZQ7 19-239); test: ELISA blocking of human B7-1 binding to PDL1; hB7-1 blockade
[2] = target: T2, cynomolgus monkey (cyno) PDL1-Fc (Sino biological) (cynomolgus monkey, UniProt G7PSE7 19-239); test: ELISA
[3] = target: T3, mouse PDL1-Fc (R & D Systems) (mouse, UniProt Q9EP73 19-238); test: ELISA
[4] = target: T4, human PDL1-Fc (R & D Systems) (human, UniProt Q9NZQ7 19-239); test: ELISA
T4 sequence (Q9NZQ7 19-239): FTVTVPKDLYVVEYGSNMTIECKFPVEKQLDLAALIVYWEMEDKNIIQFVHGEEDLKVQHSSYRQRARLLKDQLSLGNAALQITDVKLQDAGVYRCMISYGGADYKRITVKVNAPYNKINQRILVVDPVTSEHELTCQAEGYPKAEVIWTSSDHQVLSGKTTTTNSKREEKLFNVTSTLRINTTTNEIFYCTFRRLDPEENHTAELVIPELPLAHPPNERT

[5] = target: T1, human PDL1 (R&D Systems); test: ELISA blocking of human PD-1 binding to PDL1; hPD-1 blockade
[6] = target: T5, cyno PDL1 (adsorbed in blockade assays) (cynomolgus monkey, UniProt G7PSE7 19-239); test: ELISA blocking of cyno B7-1 binding to PDL1; cyno B7-1 blockade
T5 sequence (G7PSE7 entry or part of it): as the sequence (Q9NZQ7 19-239) above, with A33T, A34S, S62N, R68Q, Q82R, F173L, T185A, T192I, H215L counted along it

[7] = target: T5, cyno PDL1 (adsorbed in blockade assays); test: ELISA blocking of cyno PD-1 binding to PDL1; cyno PD1 blockade
[8] = target: T2, cynomolgus monkey (cyno) PDL1-Fc (Sino …); test: ELISA; remark: listed apart in the source
[9] = target: T3, mouse PDL1-Fc (R & D Systems); test: ELISA; remark: listed apart in the source
[10] = target: T4, human PDL1-Fc (R & D Systems); test: ELISA; remark: listed apart in the source

T1 sequence (Q9NZQ7 19-239): as the sequence (Q9NZQ7 19-239) above
T3 sequence (Q9EP73 19-238): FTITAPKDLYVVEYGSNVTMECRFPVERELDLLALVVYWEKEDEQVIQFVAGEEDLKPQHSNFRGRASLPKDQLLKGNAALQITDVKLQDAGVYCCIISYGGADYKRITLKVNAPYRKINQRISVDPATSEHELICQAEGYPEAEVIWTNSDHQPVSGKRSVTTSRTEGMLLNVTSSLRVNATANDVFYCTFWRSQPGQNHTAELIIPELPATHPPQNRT
T2 sequence (G7PSE7 entry or part of it): as the sequence (Q9NZQ7 19-239) above, with A33T, A34S, S62N, R68Q, Q82R, F173L, T185A, T192I, H215L counted along it

Binder	IC50 [1] [nM]	Kd [2] [nM]	Kd [3] [nM]	Kd [4] [nM]	IC50 [5] [nM]	IC50 [6] [nM]	IC50 [7] [nM]	Kd [8] [nM]	Kd [9] [nM]	Kd [10] [nM]
anti-PDL1 antibody C5H9v2 (antibody, V domains shown) VH: EVQLLESGGGLVQPGGSLRLSCAASGFTFSSYAMSWVRQAPGKGLEWVSSIWRNGIVTVYADSVKGRFTISRDNSKNTLYLQMNSLRAEDTAVYYCAKWSAAFDYWGQGTLVTVSS VL: DIQMTQSPSSLSASVGDRVTITCRASQSISSYLNWYQQKPGKAPKLLIYAASSLQSGVPSRFSGSGSGTDFTLTISSLQPEDFATYYCQQDNGYPSTFGGGTKVEIKR	0.5	0.544	0.464	0.272	0.7	0.1				
anti-PDL1 activatable antibody PL07-2001-C5H9v2 (antibody) VH: EVQLLESGGGLVQPGGSLRLSCAASGFTFSSYAMSWVRQAPGKGLEWVSSIWRNGIVTVYADSVKGRFTISRDNSKNTLYLQMNSLRAEDTAVYYCAKWSAAFDYWGQGTLVTVSS VL: QGQSGSGIALCPSHFCQLPQTGGGSSGGSGGSGGISSGLLSGRSDNHGGSDIQMTQSPSSLSASVGDRVTITCRASQSISSYLNWYQQKPGKAPKLLIYAASSLQSGVPSRFSGSGSGTDFTLTISSLQPEDFATYYCQQDNGYPSTFGGGTKVEIKR	11.7				39.8	9.6	7			
C5H9 mIgG2a (antibody, V domains shown) VH: EVQLLESGGGLVQPGGSLRLSCAASGFTFSSYAMSWVRQAPGKGLEWVSSIWRNGIVTVYADSVKGRFTISRDNSKNTLYLQMNSLRAEDTAVYYCAKWSAAFDYWGQGTLVTVSS VL: DIQMTQSPSSLSASVGDRVTITCRASQSISSYLNWYQQKPGKAPKLLIYYASTLQSGVPSRFSGSGSGTDFTLTISSLQPEDFATYYCQQDNGYPSTFGQGTKVEIKR								0.399	0.666	0.515
anti-PDL1 antibody C5H9 (antibody, V domains shown) VH: EVQLLESGGGLVQPGGSLRLSCAASGFTFSSYAMSWVRQAPGKGLEWVSSIWRNGIVTVYADSVKGRFTISRDNSKNTLYLQMNSLRAEDTAVYYCAKWSAAFDYWGQGTLVTVSS VL: DIQMTQSPSSLSASVGDRVTITCRASQSISSYLNWYQQKPGKAPKLLIYYASTLQSGVPSRFSGSGSGTDFTLTISSLQPEDFATYYCQQDNGYPSTFGQGTKVEIKR		0.398	0.475	0.286						
